Measurements from patent US20060142201A1.

What was measured:
[1] = biological target: human noradrenaline transporter (hNET) (human) (UniProt P23975); assay: cell-based or functional assay
[2] = biological target: human noradrenaline transporter (hNET) (human) (UniProt P23975)

Chain of human noradrenaline transporter (hNET) (human) (P23975 whole entry): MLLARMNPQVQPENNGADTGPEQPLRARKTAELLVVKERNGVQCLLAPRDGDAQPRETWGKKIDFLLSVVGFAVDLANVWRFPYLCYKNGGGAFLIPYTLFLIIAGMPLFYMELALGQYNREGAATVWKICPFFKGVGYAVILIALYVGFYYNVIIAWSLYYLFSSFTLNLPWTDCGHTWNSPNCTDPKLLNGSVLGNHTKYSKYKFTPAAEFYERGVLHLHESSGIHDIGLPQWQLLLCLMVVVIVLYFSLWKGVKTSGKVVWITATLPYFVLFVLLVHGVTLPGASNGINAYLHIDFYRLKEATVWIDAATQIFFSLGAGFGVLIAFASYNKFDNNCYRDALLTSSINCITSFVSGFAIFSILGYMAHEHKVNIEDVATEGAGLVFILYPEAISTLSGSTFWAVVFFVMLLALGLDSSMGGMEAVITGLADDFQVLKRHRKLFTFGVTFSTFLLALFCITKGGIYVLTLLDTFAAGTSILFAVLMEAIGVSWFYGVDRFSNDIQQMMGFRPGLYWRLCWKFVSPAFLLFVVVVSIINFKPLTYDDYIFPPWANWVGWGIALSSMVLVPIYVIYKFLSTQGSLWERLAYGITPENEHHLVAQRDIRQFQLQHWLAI

χ-MrIA (SEQ ID NO. 1) (peptide)
Ay log IC50 for inhibition of 3H-NA through hNET [1]: -6.3 log M

χ-MrIA (SEQ ID NO. 1) (peptide; other documents disagree on this pair)
Ay log IC50 for displacement of 3H-nisoxetine from hNET [2]: -5.14 log M
